From article PMC3230590, “Structure of the Bro1 Domain Protein BROX and Functional Analyses of the ALIX Bro1 Domain in HIV-1 Budding” (PLoS ONE, 2011)

B1: GST-CHMP4B(205-224) (domain or fragment, UniProt Q9H444 205-224, looked up)
chain: KKKEEEDDDMKELENWAGSM
notes: also called C-terminal fragment from CHMP4B; source: E. coli, captured from crude expression lysates on an anti-GST antibody sensor chip

How the values were obtained:
[1] = target: CHMP4B 205-224 (Homo sapiens) (UniProt Q9H444); details: cited from earlier work
[2] = target: T1, human BROX(1-401) (human, UniProt Q5VW32 1-401); assay: SPR; Biacore 2000; CM5 chip with amine-coupled anti-GST antibody capturing GST-CHMP4B(205-224) or GST alone from crude E. coli lysates; pure BROX proteins injected in triplicate, 1.5-fold dilution series from 400 µM; equilibrium responses fit to 1:1 isotherms; details: both partners purified
T1 construct: BROX, human, residues 1-401; lacks the 10 C-terminal residues 402-411 with the farnesylated Cys408; Residues of the vector may remain after TEV cleavage (surmise); also called wild type BROX; recombinant human BROX; not shown: His6, N-terminal, cleaved
T1 sequence (looked up): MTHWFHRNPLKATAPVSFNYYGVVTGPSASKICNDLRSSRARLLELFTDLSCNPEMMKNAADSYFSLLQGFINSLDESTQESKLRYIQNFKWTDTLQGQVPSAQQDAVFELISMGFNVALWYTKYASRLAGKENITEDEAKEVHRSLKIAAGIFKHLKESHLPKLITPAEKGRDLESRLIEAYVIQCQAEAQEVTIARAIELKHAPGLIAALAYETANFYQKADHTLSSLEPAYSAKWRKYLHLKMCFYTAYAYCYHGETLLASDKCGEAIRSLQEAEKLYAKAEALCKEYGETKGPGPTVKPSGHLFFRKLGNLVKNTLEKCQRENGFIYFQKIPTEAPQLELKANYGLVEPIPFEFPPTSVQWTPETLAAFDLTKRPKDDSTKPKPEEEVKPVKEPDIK

Molecule	Kd [1] [µM]	Kd [2] [µM]
ALIX Bro1 (from UniProt Q8WUM4)	48	
B1		98 ± 22
